Reference: the DeepSol protein solubility set

Assay: soluble on expression in E. coli; label from the status in PepcDB or PDB records

Row | Sequence | soluble on expression in E. coli
1 | MGSDKIHHHHHHMKKIYKSLTVSAIVATVSLSALPQSLAITHESQPTKQQRTVLFDRSHGQTAGAADWVSDGAFSDYADSIQKQGYDVKAIDGHSNITEASLKSSKIFVIPEANIPFKESEQAAIVNYVKQGGNVVFISDHYNADRNLNRIDSSEAMNGYRRGAYEDMSKGMNAEEKSSTAMQGVKSSDWLSTNFGVRFRYNALGDLNTSNIVSSKESFGITEGVKSVSMHAGSTLAITNPEKAKGIVYTPEQLPAKSKWSHAVDQGIYNGGGKAEGPYVAISKVGKGKAAFIGDSSLVEDSSPKYVREDNGEKKKTYDGFKEQDNGKLLNNITAWMSKDSDGKSLKASGLTLDTKTKLLDFERPERSTEPEKEPWSQPPSGYKWYDPTTFKAGSYGSEKGADPQPNTPDDHTPPNQNVKISFDIPQNVSVNEPFEVTIHLKGFEANQTLENLRVGIYKEGGRQIGQFSSKDNDYNPPGYSTLPTVKADENGNATIKINAKVLESMEGSKIRLKLGDKTLITTDFK | not soluble
2 | MSDGFSVDPAELEGFAGVAEGHAGTAGQIKGLVDRADVGDKSWGVVGLFVKSTYTGMLGDLKELFGDLEEGLRGVGERFRATAEDYRGPEEAIQRAFDGIDTGSGGR | not soluble
3 | MSLKKMMDSTTVIITTTDNRVLLQKRDENPDIEYSGYYSLVSGYLEEEETPLDGIIRELKEEFEHKKSQKVHFSSITYLGSEYRADYDRWEYIHHTYLMDDAADIRILEGESFVLLDMDECLRLENLAPHHKLFLLKYRAGLCKIDVREQSKKMFDEITVRDLIKVESVGDVKNYSLLEAGTGFVIGEDTTLSASIPAVEAAKYIGFLQFVPKVLRGNHYHFRKVEYMLILQGRMHATFQKYDDSEAVIEEIWEKGDLVRTLPGCVHTLTALGESNVLTIEFSPQPYVARDVLMNDKEGHHHHHH | soluble
4 | MGSDKIHHHHHHMLARDKSNLKIEEIRMHKHHEIHRVKPLMPALCRIRQGKKVINWETHSLTVDNNQIILFPCGYEFYIVNYPEAGLYLAEMLYYPIDLIEKFQKFYAITDQIRNTTGFCLPQNPELIYCWEQLKTSISRGFSTQIQEHLAMGVLLSLGAHHVNCLLLSDSKQSLISRCYNLMLSEPRTKWTANKVARYLYISVSTLHRRLASEGISFQSILDDVRLNNALSCYTNDSKTHQRDCQGKWLQVSFSFY | not soluble
5 | MTRNGTTSLQHDEMDTTSPPSGSGSGTAPPTTATSPPDYATAATLRSTPAQMSAAITVDLVVAAQREANFLRMIDRKAPLLYEPDVVNHALRRYETFWLPMQAAHPDLNVIPPLDVHWVWHTHMLSPIHYQEDCEKLVGKIIDHKLLSSDEIQKRYDSSVRAWDSYCSAEPYDFLASQTPPTAYKTKCNYDIAGAVQRQRNFNYQVSLPHYTSAKFLSDAVKRYIQFLLLKQTYADQFLTPCYDFDIIWHTHQVHPSSYLRDCTAIFGSLLKHDDTVNDRTKGSKLLKGEALTKKLWTTHFDEPFWRRGCMFRGHNAPAFLGFESQDLACISYGDIHVPSISLKDIPVQREQLRLKLCYGNKKVTTFNADLSQKQVTKSGFSLVWQPTESSTCASIVKFPFERRAAKDLTVELEIFDKMFLQRKDLIKLIGKATLDQLLPPSNSKSAHNVAELQLKASKDSEFTAKVNVTTSVNLNRELQLLVGDFVERQLSADSHLAYLAQCASLNRGALNANSTVHIASHSMVDTRDGTKYTVQVIHSAPLLLSMILVYGREQRLLSMAHLIGADSLPSRDQLDNNLVPFLPHLSNAEERAFVILNKEGDYAIIKGKWSGFSRKQSATKGQKAKPGNPGRLHVDAFNLLKNTVQKLEVPSADGSALFLIGDAQARLPGKRIECRSTNTAEQIASIFCVATLFVLCNPDKIRSRNDSTSVGHQAHKWPLTLACGYGRQLPTNRLLLSADQDGLGGCEIAPMLMCGVGCDGAACGACGACGACGACGGCGGCGGCGGCGGCG | not soluble
6 | MLSAESLKQIDIELAKYPADQRRSAIMGALRIAQTEKGWLAPETIAFVADYIGISPAQAYEVATFYNMYDLEPVGKYKLTVCTNLPCALRGGMATGEYLKQKLGISYGETTPDGKFTLVEGECMGACGDAPVMLLNNHKMCSFMTEEAIEKKLAELELEHHHHHH | soluble
7 | MKGILGFEYGIVQAPLGPDISGPELVAAVANAGGIGLLRCPDWECPDYLRELIRKTKTLTEKPFGIGVVLAFPHDLNIKTILEEKVAVLQLYWGDCSQELVDDAHFAGVKVIPQVGNVEEARKAVAVGVDAIIVQGREAGGHVIGKDGLFSLLPRVVDLVGERDIPVIAAGGIVDGRGYVAALSLGAQGVCLGTRFVATHESYAHPIYKRKLIEYEKTEYTDVFGRARWPGAPQRVLETPFFDDWRSLPAHENEVNQPIIGRSTIHGVEKEIRRFSGTVPNMTTTGDLESMAMYAGQSVGLIKEILPAGEVVKSLVEEAQALILQKFNNATTT | not soluble
8 | GSPEFKTIDASVSKKAADSTSQCGKATGSDSSGVIDLTMDDEESGASQD | soluble
9 | MSLSPFEHPFLSGLFGDSEIIELFSAKADIDAMIRFETALAQAEAEASIFADDEAEAIVSGLSEFAADMSALRHGVAKDGVVVPELIRQMRAAVAGQAADKVHFGATSQDVIDTSLMLRLKMAAEIIATRLGHLIDTLGDLASRDGHKPLTGYTRMQAAIGITVADRAAGWIAPLERHLLRLETFAQNGFALQFGGAAGTLEKLGDNAGAVRADLAKRLGLADRPQWHNQRDGIAEFANLLSLVTGTLGKFGQDIALMAEIGSEIRLSGGGGSSAMPHKQNPVNAETLVTLARFNAVQISALHQSLVQEQERSGAGWMLEWLTLPQMVTATGTSLLVAERLAAQIDRLGADESHHHHHH | soluble
10 | MGSDKIHHHHHHMINQVYQLVAPRQFDVTYNNVDIYGNHVIVRPLYLSICAADQRYYTGRRDENVLRKKLPMSLVHEAVGEVVFDSKGVFEKGTKVVMVPNTPTEQHHIIAENYLASSYFRSSGYDGFMQDYVVMAHDRIVPLPNDIDLSTISYTELVSVSYHAIQRFERKSIPLKNSFGIWGDGNLGYITAILLRKLYPEAKIYVFGKTDYKLSHFSFVDDIFTVNQIPDDLKIDHAFECVGGKGSQVALQQIVEHISPEGSIALLGVSELPVEVNTRLVLEKGLTLIGSSRSGSKDFEQVVDLYRKYPDIVEKLALLKGHEINVCTMQDIVQAFEMDLSTSWGKTVLKWTI | not soluble
11 | MGSDKIHHHHHHMFKKVAADVLGLSDVGSVITPKDYDKVDADDYVMHEDGEKIYFLIKSKSDEYCFTNKGLLHLDGTSATSKKRTLRRFSYSKYQIKNVALETAGTIDLDVEIKFQMGDEHYSIDVHKKHIEELKDLYKALLKIEEISYDNDITLQYAHKSLDMASNAFSRISNAQVNLAEQFKEMNEIAFNWLVDTKKQYNVKDYGFVFEKFINN | not soluble
12 | MAETVGMILCGGFGKRLRPLTEKIPKPLIEIKEGYTILDKQLFDLKNAGINTVYLLTGFLGERIEERYGDNYKGLRIEYVREEKPLGTLNAIRLGMEAIDGEKQCIIRNGDVVADLNIKKMIHLGEMSDYPLTMFITRMQSPYGIVETSGDKIINFREKPLLDYYINAGVYFSKGNLDFGDFESGDIEKTLFPLMAKENKLGYYREDGLFWMAIDTSKELEEIRKEYRNREDKPWGYEKILINTEKYLTKELFIREGYRTSFHYHEEKDETMYIISGSGYIEFDNRKEYFSKNDTIRIEPGERHSIVAMENTVLHEVSTPHLNDTVRVQDYYTRLEHHHHHH | soluble
13 | MGSDKIHHHHHHMKIHFVGIGGIGMSAVALHEFSNGNDVYGSNIEETERTAYLRKLGIPIFVPHSADNWYDPDLVIKTPAVRDDNPEIVRARMERVPIENRLHYFRDTLKREKKEEFAVTGTDGKTTTTAMVAHVLKHLRKSPTVFLGGIMDSLEHGNYEKGNGPVVYELDESEEFFSEFSPNYLIITNARGDHLENYGNSLTRYRSAFEKISRNTDLVVTFAEDELTSHLGDVTFGVKKGTYTLEMRSASRAEQKAMVEKNGKRYLELKLKVPGFHNVLNALAVIALFDSLGYDLAPVLEALEEFRGVHRRFSIAFHDPETNIYVIDDYAHTPDEIRNLLQTAKEVFENEKIVVIFQPHRYSRLEREDGNFAKALQLADEVVVTEVYDAFEEKKNGISGKMIWDSLKSLGKEAYFVEKLPELEKVISVSENTVFLFVGAGDIIYSSRRFVERYQSSKSSPSRVLGSNK | soluble
14 | MSLVINAPFKVIASKVTAEVLKSVNSKLGSYSTNYATSSEARATNVAVATRSIDGKVVMPGETFSFNEVVGERTRARGYKEAGVIVNQKLESGFGGGVCQVSSTLYNALLRSNIKMTERVHHTFPSSYVPTGLDATVDWGNIDLKFKNTFKYPIYIQGYTGGREVGFNIYSNSELARTRCEITSEVYKKIEPRTEYINDSNLPAGAMEVVKSGHTGYRVKSYRSIYKDGKFVAKELIANDYYVPVNGVVKRGTREGHHHHHH | soluble
15 | MEEAPFYRDTWVEVDLDAIYNNVTHIKEFIPSDVEIFAVVKGNAYGHDYVPVAKIALEAGATRLAVAFLDEALVLRRAGITAPILVLGPSPPRDINVAAENDVALTVFQKEWVDEAIKLWDGSSTMKYHINFDSGMGRIGIRERKELKGFLKSLEGAPFLELEGVYTHFATADEVETSYFDKQYNTFLEQLSWLKEFGVDPKFVHTANSAATLRFQGITFNAVRIGIAMYGLSPSVEIRPFLPFKLEPALSLHTKVAHIKQVIKGDGISYNVTYRTKTEEWIATVAIGYADGWLRRLQGFEVLVNGKRVPIVGRVTMDQFMIHLPCEVPLGTKVTLIGRQGDEYISATEVAEYSGTINYEIITTISFRVPRIFIRNGKVVEVINYLNDILEENLYFQ | soluble
16 | MGQIIVSMYLSLDGVMEEPAWTAPYFNEEVAKFQSDLLFESEALLLGRVTYQGFAAAWPSMTDEEGFADKMNSIPKFVASTTLEKTEWNANLIKGNIVEEISKLKEQPGQNLLIYGSGELIQTLMQHDLIDEYHFMVNPVIVGSGKHLFKTGNDTKALKLIETRTTSSGVVILSYQPEKKE | not soluble
17 | MEDNIRIGKIILNLSNKISRQLNKEASAFGLTGVQAKLIGFIHHRSSTQDIFQKDIEEEFDIRRSSVTSALQLMEKKGYIKRVSVSDDARLKKIVLTEKGLELDKKVYDAIIKLENSLINEFDNDELHVLIDSLDRISKKIVDLEHHHHHH | soluble
18 | NFMLNQPHSVSESPGKTVTISCTRSSGNIDSNYVQWYQQRPGSAPITVIYEDNQRPSGVPDRFAGSIDRSSNSASLTISGLKTEDEADYYCQSYDARNVVFGGGTRLTVLG | soluble
19 | MQTETIHNIPYVNSNLTSFIDYLEKHYIDQKIGAVISTVNPEIAFAAIKDRDYFDVLSSSNFILPDGIGVVMMSRLTNNRLQSRIAGYDVFKELLGVANKKKKRIFLYGAKKDVIKGVVSKISSEYPNIKIAGYSDGYVQDRTLVAKQIARANPDMVFVALGYPHQEKFIHNYRHLFPKAVSIGLGGSFDVFSGNVKRAPSWMIRLNLEWFYRLILNPWRWKRMLSIPKYALTVLKEEKNKKTFYPKPEKDHTKQI | not soluble
20 | MGSDKIHHHHHHMVHSTPTTFAGSKSARPRVAIAGFQHETNTFAPFGAPFDDFVRGGGWPAMTTGAAILDVFPPIEIPIGGFISAAKDTYELIPLVWAAAEPTSFVSDDAFERIAGMICDGIARAGPLDAIYLDLHGAMVVESYQDGEGELLRRVREIVGRDIPIMISLDFHANVTEAMVELSDGITIFRTYPHIDLADTGGRAFSLLEQRIRRGRPFIKAFRKTPFLIPLPAQCTDLEPCMSLYAGLQERVKGPVLNVDVALGFPLADIRECGPAVVAYGIDEVAVTAAADMQLSDMLEAEGRFHMSLLDVKEAVEHAARNGRKGSLIVLADVQDNPGCGGTSDTIGLLKGMVEGGLRNGVLGLLWDPETAEAAHTAGLGAELDVRLGGRYGYDSEPYLARVRVEALSDGVFKANGPCLGGVQVDLGRMARLLILNPGSSVQVVVSSVRFQCLDQDLLRAVGVEPRDQSVVAVKSAVHFRADFAPIAEEILTVESPGAHWCRNDILDYKNLRDGVRRMPISLATQPSEVKIAERRH | not soluble
